Measured values taken from US20050260216A1 (published 2005).

Experiments:
[1] = target: human type-2 IL-4 receptor (on A549 cells) (human) (UniProt P24394); experiment: cell-based or functional assay
[2] = target: T1, human type-2 IL-4 receptor (on A549 cells) (human, UniProt P24394 26-825; P78552 22-427); experiment: cell-based or functional assay
T1 sequence (looked up) 1: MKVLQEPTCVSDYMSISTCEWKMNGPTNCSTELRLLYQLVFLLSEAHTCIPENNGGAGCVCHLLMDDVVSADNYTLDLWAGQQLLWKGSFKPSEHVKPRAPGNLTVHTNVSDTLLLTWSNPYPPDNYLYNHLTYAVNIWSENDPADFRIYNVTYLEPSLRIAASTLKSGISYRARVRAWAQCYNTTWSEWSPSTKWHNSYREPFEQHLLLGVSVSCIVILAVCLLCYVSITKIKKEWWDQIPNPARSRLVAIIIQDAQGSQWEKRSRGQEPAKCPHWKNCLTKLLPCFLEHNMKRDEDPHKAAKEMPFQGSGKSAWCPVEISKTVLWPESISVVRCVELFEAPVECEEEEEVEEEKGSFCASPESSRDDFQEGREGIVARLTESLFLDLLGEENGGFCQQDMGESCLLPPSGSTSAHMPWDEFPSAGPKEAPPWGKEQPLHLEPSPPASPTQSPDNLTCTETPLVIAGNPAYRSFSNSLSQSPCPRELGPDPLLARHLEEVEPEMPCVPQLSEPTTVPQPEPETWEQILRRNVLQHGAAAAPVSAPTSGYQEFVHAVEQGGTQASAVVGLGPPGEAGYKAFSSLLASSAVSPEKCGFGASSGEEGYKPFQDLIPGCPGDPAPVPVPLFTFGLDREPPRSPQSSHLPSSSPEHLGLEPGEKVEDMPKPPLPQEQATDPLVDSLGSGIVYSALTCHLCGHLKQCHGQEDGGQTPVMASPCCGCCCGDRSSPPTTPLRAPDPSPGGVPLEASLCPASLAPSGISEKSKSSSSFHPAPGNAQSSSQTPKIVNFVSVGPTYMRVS
T1 sequence (looked up) 2: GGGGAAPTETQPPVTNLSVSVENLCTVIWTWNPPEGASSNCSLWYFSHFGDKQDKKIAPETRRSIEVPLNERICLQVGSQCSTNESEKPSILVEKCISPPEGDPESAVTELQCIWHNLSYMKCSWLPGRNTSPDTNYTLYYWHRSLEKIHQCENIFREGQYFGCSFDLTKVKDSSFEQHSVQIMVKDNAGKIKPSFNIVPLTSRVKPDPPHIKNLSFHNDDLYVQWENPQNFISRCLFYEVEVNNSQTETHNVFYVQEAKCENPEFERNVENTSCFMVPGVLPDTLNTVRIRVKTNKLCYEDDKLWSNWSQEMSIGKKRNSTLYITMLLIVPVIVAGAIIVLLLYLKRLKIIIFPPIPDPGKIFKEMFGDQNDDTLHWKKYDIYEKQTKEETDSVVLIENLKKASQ

“recombinant mouse IL-13 (catalogue number 413-ML-025, R&D Systems) (from UniProt P20109 26-131) (ligand)” showed a phosphorylation of STAT6 in A549 cells (Western blot); lowest active concentration tested [1] of 10 ng/mL.

B1: chimaeric IL-13 (free cIL-13 generated from GST-cIL-13 by thrombin cleavage) (ligand)
chain: GPVPRSVSLPLTLRELIEELVNITQDQTPLCNGSMVWSVDLAAGGYCAALESLTNISNCNAIEKTQRMLGGLCNRKAPTTVSSLPDTKIEVAQFVKDLLSYTKQLFRHGPF
B1 was tested, and the “bioactivity relative to mIL-13 (STAT6 phosphorylation in A549 cells)” value [2] was about 5 fold less than mIL-13.
